Reference: the supplement of paper PMC12042874
± gives the uncertainty stated by the source.

assay: amyloid nucleation score (Sup35N fusion, yeast selection) (log enrichment); library NNK2; higher = more nucleation; inactive = no reads after selection
How it was run: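 The nucleation score is a DiMSum log enrichment of output over input reads, centred on the mode score of non-aggregating sequences. Sequences under 100 input reads were excluded, and reads came from Illumina sequencing of plasmid inserts. Psi-negative yeast expressing Sup35N fused to peptides of 20 random codons were induced with 100 μM copper sulfate for 24 hours and grown 7 days at 30°C on medium lacking adenine and uracil. Random libraries had three technical output replicates.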

Substance	amyloid nucleation score
LVYRGLESQPAMRMWHTSST	-0.207 ± 0.63
LWAFHLNFVLSAVCLRRKNL	inactive
LWEVLWVFFDLNNVRLTMCN	-0.93 ± 0.78
LWFLYSAVTFTR	-0.856 ± 0.76
LWHGYGRFRVLSVVF	3.53 ± 0.045
LWIYNYVIRLDFICMERILL	inactive
LWPVCALDEGL	0.669 ± 0.62
LWYMMYLRPLWVRPKIDNEV	1.11 ± 0.24
LYAECFYATILNGDECRWRT	0.344 ± 0.31
LYDIWEDGSITLFCYSYQHH	8.969 ± 0.037
LYENRQFFCQGFGRWCMKLL	0.45 ± 0.74
LYFLV	6.55 ± 0.085
LYGTE	0.244 ± 0.2
LYHYPS	inactive
LYKAGIGILLTGVILVF	-1.12 ± 0.6
LYLCGWVGRSMGFDARPCHF	3.38 ± 0.098
LYPYAQFCVSVRRLHRLVSR	0.306 ± 0.28
LYRSVGFGIVEFDH	inactive
LYSDMRASDRYWTLSFDCKI	1.88 ± 0.48
LYSLWQKRGRRGSYVSPAGS	2.88 ± 0.13
LYSLYTYVKRYCASRVRHRY	0.688 ± 0.81
LYSRSTSILDERWSTVIILL	2.5 ± 0.23
LYSVGVR	-0.387 ± 1.1
LYSYDLTC	1.78 ± 0.13
LYVVVRLISCYYGAFPSWNR	-0.316 ± 0.26

Substance	amyloid nucleation score
MAFCCLSVRYTIGRVVAFMY	-0.4 ± 0.64
MAILYVVGWFVP	0.148 ± 0.28
MANSTLRV	0.314 ± 0.39
MASAVNCESCISSGRVRFSG	0.547 ± 0.81
MATSMNQHGVRMVWSSRLGS	4.57 ± 0.051
MCDLDDRKTTLSPWLRSSLG	1.14 ± 0.35
MCGKRGLRGWLKSDDVIIWV	5.19 ± 0.074
MCPDKARGTMVCTERTPRLM	0.793 ± 0.15
MDGVMRTRFFLDSDVFYSSH	3.69 ± 0.046
MDNNVNNRSPFLICRMMDNI	inactive
MDPVWVYADFWMF	-0.78 ± 1.1
MDRWGLFMGYCIADHMIMFD	-0.416 ± 0.48
MDTSYMVLCYKSQRRRSGSR	0.776 ± 0.2
MDWSSGSYGSLSSSHAIERF	-0.093 ± 0.79
MELCYVILWYYIFSCGWWRS	inactive
MENLRNMAYSNC	-1.66 ± 0.61
MESINSVSSSNIVHRFRRGV	5.58 ± 0.077
MFDLQVRTWFWAF	3.03 ± 0.11
MFEVWFLESRHFINWGICSS	inactive
MFGGQELCACLDKEGRTESG	5.09 ± 0.08
MFLRRCSSRVDSKNGHSSKD	0.107 ± 0.39
MFMSQIPYQCGVKSNSVISK	-0.357 ± 0.49
MFRVARFSKAYDCTHFVING	0.546 ± 0.8
MFSNQADFDTNLVSLYDKTW	-0.825 ± 0.4
MFVLFWVVNSTDLCGTAPLV	0.205 ± 0.61

Substance	amyloid nucleation score
MFVQCICRGIHIIVPGSVRS	3.88 ± 0.13
MFYLCLRVVFRLKSWDFCDK	-0.271 ± 0.34
MGFIRINWLNSVLRSPPTHR	5.527 ± 0.044
MGGGNCLVRFKRYEFPFDIP	-1.61 ± 0.54
MGGLNLCLWSSGLMLVGTGR	5.237 ± 0.043
MGHRFLLRRLSFIADLLV	-1.12 ± 1
MGLPSIF	5.89 ± 0.092
MGSFKC	-1.32 ± 0.63
MGVDLPIASLCSNCGEAGLG	0.199 ± 0.43
MHQVFIKEYAEYYRVCERRM	2.05 ± 0.064
MHRLRYKATVFGLNNDDMPP	0.841 ± 0.44
MIGKRGVFS	inactive
MIIMQANDP	-0.302 ± 0.76
MIKYYVSHNPRWHSRWCNSQ	0.762 ± 0.43
MISESF	0.403 ± 0.56
MITWCHIVALSNVGTVVSYN	inactive
MIWLHIILMLMLVCRVLSE	0.914 ± 0.46
MIWPCMVP	-0.237 ± 1
MIYSVMFNVNGACTYNCRII	7.478 ± 0.055
MKFKPDLVLFRYVHVKVYLE	-1.01 ± 1.1
MKGACLRGYEVLSMGQSTSY	0.404 ± 0.8
MKKFLGWRYELNCWVLYNSG	-1.16 ± 0.76
MKKWWPVICFGWSQVSFRVE	3.21 ± 0.16
MLALLCVNNWEGCYWYVGSV	6.827 ± 0.063
MLCVFRVLPMLNWY	-0.257 ± 0.48

Substance	amyloid nucleation score
MLGVSQCVVMVVAGWA	1.4 ± 0.16
MLKQSGDSVAHCLGKTGSQM	0.371 ± 0.35
MLKSHVI	-0.374 ± 0.32
MLLFSLWGNYAGQVPWDRVG	-0.513 ± 0.48
MLRFFCADWCSLGVCFTLGV	-0.137 ± 1.1
MLRHSANMIKMLKHTTTND	0.004 ± 0.45
MLTFF	-0.409 ± 0.76
MLVLSSFNCRLFKINRLR	-0.268 ± 0.45
MLVPFRVESMSGTRTCKVTV	4.96 ± 0.08
MLVRIYLYRKRSYMVRSALM	1.52 ± 0.12
MMFILLYKTFCAGEWAGGMY	6.053 ± 0.04
MMGECNFCSIGRH	4.83 ± 0.078
MMHEYAAGGLSSGLFWDMSG	-0.623 ± 0.63
MMIFLGLTSFKFLMSAVNTM	0.628 ± 0.38
MMSSRILGVFDSSSTICVRH	-0.218 ± 0.38
MNACSQGVSQSSDFQL	5.08 ± 0.066
MNFCNHPLMDLMVSDLAWWM	0.112 ± 0.37
MNHISLFFRSEVQVCGVFC	8.609 ± 0.052
MNHWGMLRLGSWYRITYA	-0.367 ± 0.38
MNMFMCFNGHNKRIVVKSKL	0.446 ± 0.42
MNVYYHVGWNGCYSGVWRAE	4.818 ± 0.043
MNYTT	-0.242 ± 0.54
MPLQFDPVWFILNTLLRPHA	-0.228 ± 0.42
MPQSYFLGSRIKRFKKSRLV	0.496 ± 0.37
MQLNNG	0.075 ± 0.21

Substance	amyloid nucleation score
MRHSRHFVQYGWFDCGQSGS	1.02 ± 0.29
MRRTPFCVWKHIYRM	0.182 ± 1.1
MSFFYDMEEWRMCLRLARYR	3.82 ± 0.07
MSFRSRPGLDDGWMIRWRGR	0.446 ± 0.49
MSFVDEYCGGEVTISEPSMS	-0.545 ± 0.76
MSGICPDQSSLYIEDTSIWL	2.96 ± 0.068
MSICANLVLWWLDL	-0.607 ± 0.63
MSKDTVMPWERIKEVLHCLG	0.342 ± 0.3
MSPYLWYGWLEAGLLGIRTL	0.871 ± 0.34
MSQGSKIRVTWARSGGTRRL	3.08 ± 0.15
MSYQSINKKGFVVFGRKLLA	-0.512 ± 0.39
MTALSTVDWRYSAHFSS	inactive
MTCRRCNNAMWSGLLRLKIY	2.97 ± 0.17
MTCSTWMQLVRYTSVICILT	inactive
MTFVHVSNMWDRNEGICGDE	-0.323 ± 0.41
MTIGFNAIYHQFRVTRCLVT	0.545 ± 0.53
MTLIAVDSLSYLWANDNRRG	0.353 ± 0.36
MTRVSQFVVVP	1.69 ± 0.13
MTVLV	1.12 ± 0.26
MVAFNTFSD	inactive
MVFFLLQLATAAVFSF	-0.073 ± 1
MVFKRPHVWFDTTTFEFGMV	0.732 ± 0.43
MVIYHVPQYVRYWQP	0.017 ± 0.63
MVSFGSGGELFFMHTQFSAR	-0.311 ± 0.64
MWLGLTRRMVITSCYN	0.461 ± 0.36

Substance	amyloid nucleation score
MWSLRYTVGLEDCG	0.897 ± 0.34
MYCYRNFLSDDINRGGALVM	-0.998 ± 0.74
MYFNSRSNYEYAYCWLFIVF	0.492 ± 0.44
MYGTTRLVLWAVIDWFEGVG	-0.718 ± 0.49
MYKGLISLNCVTSGTRSG	-1.07 ± 1.1
MYRVLSIKWDRHLTRVHIAW	inactive
MYWLFR	0.461 ± 0.25
MYYYSSCKNVQKSHPSSRMQ	inactive
NACPVCSRW	0.589 ± 0.38
NAHKTNLVQTLVNRLIELMD	0.223 ± 0.29
NALADRRFTISPRIFAYLLL	0.312 ± 0.65
NAPLCFKHKSRL	-0.995 ± 0.44
NAQYGRCSLWCPCPTVWTA	2.24 ± 0.25
NARGHVNV	0.786 ± 0.44
NARLRYGSL	-0.101 ± 0.37
NASPFSHKYHEWFEVEGSSI	0.108 ± 0.65
NATCA	-1.01 ± 0.45
NAYVEIIIWASRDFMYCRHM	-0.262 ± 0.79
NCEPELLAVLSRCFSSIWVS	-1.27 ± 0.78
NCETLCVLVGAQYC	4.13 ± 0.049
NCFFITGGNGYNAVLLKYIC	3.83 ± 0.04
NCGKLHQF	0.403 ± 0.5
NCLVISFKLWHNLMTVGYGD	3.66 ± 0.079
NCMPMEYNDGENAVMCGFNG	0.11 ± 0.27
NCRFFIADVSLYPTWFIFYF	2.82 ± 0.12

Substance	amyloid nucleation score
NCSSTIDFLFNLIHILKNF	inactive
NCVHRDNWE	inactive
NCYNMVYNCVPSEKAVKTCR	0.264 ± 0.32
NDRILPYSNLWHWERLV	-0.567 ± 1.1
NDSSLCSSVRPIRMREEFDK	-0.099 ± 0.25
NDSTLGRLSYNLRDLRSQKM	-0.502 ± 0.79
NECRVDFE	-0.668 ± 0.56
NEHYGRTMTN	-0.064 ± 1.1
NENTLNMMKVWVTGGLSTRK	2.89 ± 0.17
NEVSGNGLFSIFSQSGKSYY	inactive
NFACVFHGVDFYRTDSSCRK	5.17 ± 0.072
NFADWTCFDIQVR	-0.186 ± 0.32
NFASFCPFFS	0.053 ± 0.39
NFCLARRYTYIKSPFCVSGK	0 ± 0.56
NFGGIKKLYNTMRSYWLGTR	-1.22 ± 0.45
NFGIKWIVFLKL	-0.861 ± 0.28
NFGLEELTGKIGGRTC	1.04 ± 0.23
NFKECNLDCKSHLRNVWLRQ	inactive
NFNGGCKFKGDYYRKA	1.14 ± 0.26
NFSDWIYVFSEVPMLVRCRW	0.261 ± 0.42
